T1: hTcf-4 (endogenous, in nuclear extracts or cells) (human)
T1 chain: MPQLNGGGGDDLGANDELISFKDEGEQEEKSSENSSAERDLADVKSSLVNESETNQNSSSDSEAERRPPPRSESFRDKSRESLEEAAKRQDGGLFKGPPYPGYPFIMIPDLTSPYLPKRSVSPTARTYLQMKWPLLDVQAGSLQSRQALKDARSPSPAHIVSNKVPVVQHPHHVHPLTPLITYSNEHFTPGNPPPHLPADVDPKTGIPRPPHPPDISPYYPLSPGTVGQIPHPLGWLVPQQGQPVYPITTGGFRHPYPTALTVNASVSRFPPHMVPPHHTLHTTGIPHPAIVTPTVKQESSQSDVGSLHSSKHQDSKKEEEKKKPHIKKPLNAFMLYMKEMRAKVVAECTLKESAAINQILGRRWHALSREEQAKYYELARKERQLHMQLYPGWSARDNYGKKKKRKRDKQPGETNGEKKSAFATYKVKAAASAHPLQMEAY


Columns and labels:
[1] = biological target: Myc-tagged hTcf-4 (epitope-tagged hTcf-4 in expression vector pCDNA) (human)
[2] = biological target: T1, hTcf-4 (endogenous, in nuclear extracts …); test: gel retardation of nuclear extracts of HT29-APC1 cells after 20 h Zn++ induction of APC
Description: Figure 2C: Figure 4: FIG. 4. Constitutive presence of β-catenin-hTcf-4 complexes in APC^{-/-} cells. Gel retardation assays were performed on nuclear extracts from the indicated cell lines before and after a 20-hour exposure to Zn^++. Samples in lanes 1, 4, 7, 10 were incubated under standard conditions. To the samples in lanes 2, 5, 8, 11, 0.25 μg, anti β-catenin was added. To the samples in lanes 3, 6, 9, 12, 0.25 μg of a control (human CD4) antibody was added. N.S., nonspecific band also observed with mutant (nonbinding) probe (lane Mt).
Gel retardation assays were performed as described elsewhere (7). Extracts were prepared from intact nuclei that were washed four times to avoid contamination with cytoplasmic β-catenin. As the optimal Tcf/Lef probe, we used a double-stranded 15-mer […] (SEQ ID NO: 12); the control probe was […] (SEQ ID NO:13). (All oligonudeotides were from Isogene, Holland). The β-catenin antibody was purchased from Transduction Laboratories (Lexington, Ky.). A typical binding reaction contained 3 μg nuclear protein, 0.1 ng radiolabeled probe, 100 ng of dIdC, in 25 μl of binding buffer (60 mm KCl, 1 mM EDTA, 1 mM DTT, 10% glycerol). Samples were incubated for 20 min at room temperature, antibody was added, and the samples incubated 20 min further.

CRT reporter activity in 293 cells cotransfected with a Tcf-4 expression vector [1]	decrease of the complex relative to uncomplexed hTcf-4 after Zn++ induction of APC [2]	Molecule
6 fold		β-Cat Δ45 (mutant β-catenin from HCT116, deletion of Ser-45) (from UniProt P35222)
6 fold		β-Cat S33Y (mutant β-catenin from SW48) (from UniProt P35222)
	6 fold	β-catenin (endogenous, human colorectal cancer cell lines HT29, SW480) (other) ATQADLMELDMAMEPDRKAAVSHWQQQSYLDSGIHSGATTTAPSLSGKGNPEEEDVDTSQVLYEWEQGFSQSFTQEQVADIDGQYAMTRAQRVRAAMFPETLDEGMQIPSTQFDAAHPTNVQRLAEPSQMLKHAVVNLINYQDDAELATRAIPELTKLLNDEDQVVVNKAAVMVHQLSKKEASRHAIMRSPQMVSAIVRTMQNTNDVETARCTAGTLHNLSHHREGLLAIFKSGGIPALVKMLGSPVDSVLFYAITTLHNLLLHQEGAKMAVRLAGGLQKMVALLNKTNVKFLAITTDCLQILAYGNQESKLIILASGGPQALVNIMRTYTYEKLLWTTSRVLKVLSVCSSNKPAIVEAGGMQALGLHLTDPSQRLVQNCLWTLRNLSDAATKQEGMEGLLGTLVQLLGSDDINVVTCAAGILSNLTCNNYKNKMMVCQVGGIEALVRTVLRAGDREDITEPAICALRHLTSRHQEAEMAQNAVRLHYGLPVVVKLLHPPSHWPLIKATVGLIRNLALCPANHAPLREQGAIPRLVQLLVRAHQDTQRRTSMGGTQQQFVEGVRMEEIVEGCTGALHILARDVHNRIVIRGLNTIPLFVQLLYSPIENIQRVAAGVLCELAQDKEAAEAIEAEGATAPLTELLHSRNEGVATYAAAVLFRMSEDKPQDYKKRLSVELTSSLFRTEPMAWNETADLGLDIGAQGEPLGYRQDDPSYRSFHSGGYGQDALGMDPMMEHEMGGHHPGADYPVDGLPDLGHAQDLMDGLPPGDSNQLAWFDTDL

Source: patent US6140052, “cMYC is regulated by Tcf-4” (The Johns Hopkins University, dated 1998)
